Tests used:
LRP2 CR34-36 = target: T1, LRP2 CR34-36 (Homo sapiens, UniProt P98164); experiment: Solid phase binding assay; details: highest ligand concentrations tested
T1 construct: a CR triplet from LRP2 (CR34-36); made in house; host or cells: E. coli BL21(DE3) CodonPlus-RIPL, pET30(+)a
Protocol: (§1) All expression constructs were sequenced to verify insert sequences and the junctions with the expression vector. Each plasmid was then used to transform BL21(DE3) CodonPlus-RIPL™ cells (Stratagene). Expression of the CR proteins was induced in logarithmic growth-phase cells grown in LB supplemented with 34 μg/mL chloramphenicol, 12.5 μg/mL tetracycline and 15 μg/mL kanamycin by addition of 2 mM IPTG, followed by reduction in incubator temperature to 32° C. and incubation for 4 hours with agitation at […]. Cells were pelleted and resuspended, at 3.5% of the initial culture volume in 10 mM Tris-HCl pH 8, 100 mM NaH2PO4, 8M Urea. Resuspended cells were then frozen in liquid nitrogen, rapidly thawed to 37° C. and sonicated for 10 seconds at an amplitude setting of 60 using a Cole-Parmer CP-130 ultrasonic processor connected to a 3 mm probe. This procedure was repeated three times to effect complete lysis of the cells. Lysates were clarified by spinning twice at 10,000×g in a Sorvall RC-5 centrifuge for 20 minutes at 15° C. Ni-NTA columns (Qiagen Superflow™, 1.5 mL packed bed) were used to purify the CR proteins. Briefly, the resin was equilibrated with two column volumes of lysis buffer. The clarified lysate was then supplemented to 20 mM with imidazole and incubated with the equilibrated Ni-NTA resin overnight at 4° C. The flow-through was discarded. Columns were washed once with one column volume of lysis buffer and then three times with one column volume of TBS pH 8 supplemented with 20 mM imidazole. CR-loaded beads were then removed from the column and CR proteins eluted by incubating at room temperature for 30 minutes with one column volume of the same buffer containing 200 mM imidazole. This step was repeated once and the eluates pooled. Eluted CR protein solutions were then supplemented to 2 M urea, 10 mM CaCl2 and 5 mM DTT. Purified, denatured CR protein solutions were transferred to 3,500 MWCO Slide-A-Lyzer™ (Pierce) cassettes and sequentially dialyzed against a 200-fold excess of 50 mM Tris-HCl pH 8.5, 10 mM CaCl2, 1 mM reduced glutathione, 0.5 mM oxidized glutathione at room temperature overnight and then against TBS supplemented with 5 mM CaCl2 at 4° C. overnight. Protein concentrations were determined by Bradford assay and purity confirmed by SDS-PAGE with Coomassie Brilliant Blue staining.
(§2) Purified, refolded CR protein (1 μg) was bound to Nunc Maxisorp™ 96-well plates in TBS pH 8 supplemented with 5 mM CaCl2 (TBSC) overnight at 4° C. Wells were washed with TBSC and then blocked with TBSC containing 2% bovine serum albumin (BSA). RAP ligands were then incubated with the immobilized receptor at a range of concentrations for 2 hours in the above blocking buffer supplemented with 0.05% Tween-20 at room temperature. Control wells contained no added ligand. As an additional control, to determine whether the absence of calcium affected binding, 10 mM EGTA was included in the incubation medium for some samples. Wells were washed with TBSTC and bound ligands detected with polyclonal anti-RAP (BP41/42, 1:1,000, BioMarin). Excess primary antibody was removed and wells washed before incubation with the secondary antibody, HRP-conjugated goat anti rabbit IgG (Bio-Rad). After washing, TMB substrate solutions (Bio-Rad) were added to detect HRP. Color development was stopped with 1N HCl. Absorption at 450 nm was measured with a microplate spectrophotometer (Molecular Devices). Data were plotted and Kd values derived by non-linear regression with the assumption of single-site binding (GraphPad Prism).

LRP2 CR3536 = target: T2, LRP2 CR3536 (Homo sapiens, UniProt P98164); experiment: Solid phase binding assay; details: highest ligand concentrations tested
T2 construct: VLDLR CR78, LRP2 CR3536, LRP2 CR34-36 and MAT CR23; made in house; host or cells: E. coli BL21(DE3) CodonPlus-RIPL, pET30(+)a
Protocol: as §1, §2

T2 sequence (P98164 3880-3974 limits assumed): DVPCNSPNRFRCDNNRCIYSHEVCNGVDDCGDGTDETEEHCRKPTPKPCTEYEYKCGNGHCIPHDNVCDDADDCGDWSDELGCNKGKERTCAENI
T1 sequence (P98164 3838-3974 limits assumed): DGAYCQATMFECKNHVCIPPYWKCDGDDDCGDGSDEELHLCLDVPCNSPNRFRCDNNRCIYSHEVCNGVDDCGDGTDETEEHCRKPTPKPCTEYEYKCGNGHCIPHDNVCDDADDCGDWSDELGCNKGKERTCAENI

B1: RAP d3: third domain of human RAP, amino acids 201-319 of mature RAP, bacterially expressed with hexahistidine and S-peptide tags (SEQ ID NO: 92) (protein, listed as Homo sapiens)
chain: LDRLRRVSHQGYSTEAEFEEPRVIDLWDLEQSANLTDKELEAFREELKHFEAKIEKHNHYQKQLEIAHEKLRHAESVGDGERVSRSREKHALLEGRTKELGYTVKKHLQDLSGRISRAR
modifications: hexahistidine and S-peptide tags
binding relative to that for LRP1 CR3-5 (LRP2 CR34-36): less than 5% | binding relative to that for LRP1 CR3-5 (LRP2 CR3536): less than 5%

From patent publication US8440629B2, “Cyclic receptor-associated protein (RAP) peptides” (Raptor Pharmaceuticals Inc., priority 2007, dated 2013)
